Molecular target: T1, p185 BCR-ABL (human, UniProt P00519 27-1130)
T1 construct: Endogenous protein of the SUP-B15 ALL cell line; also called Bcr-Abl oncoprotein (SUP-B15 cells)
Assay: co-precipitation of Bcr-Abl with Bcr by anti-BCR (1256-1271), immunokinase assay, SUP-B15 cells
Protocol: The effects of the sense and antisense 3′ BCR oligonucleotides were tested on BCR expression in SUP-Bi5 cells, a cell line derived from a Ph¹-positive acute lymphocytic leukemia patient that expresses p185 BCR—ABL.
In this study, equal amounts of the sense and the antisense oligonucleotide treated B15 cells were analyzed.

B1: p160 BCR (enzyme, human, UniProt P11274 1-1271, looked up)
chain: MVDPVGFAEAWKAQFPDSEPPRMELRSVGDIEQELERCKASIRRLEQEVNQERFRMIYLQTLLAKEKKSYDRQRWGFRRAAQAPDGASEPRASASRPQPAPADGADPPPAEEPEARPDGEGSPGKARPGTARRPGAAASGERDDRGPPASVAALRSNFERIRKGHGQPGADAEKPFYVNVEFHHERGLVKVNDKEVSDRISSLGSQAMQMERKKSQHGAGSSVGDASRPPYRGRSSESSCGVDGDYEDAELNPRFLKDNLIDANGGSRPPWPPLEYQPYQSIYVGGMMEGEGKGPLLRSQSTSEQEKRLTWPRRSYSPRSFEDCGGGYTPDCSSNENLTSSEEDFSSGQSSRVSPSPTTYRMFRDKSRSPSQNSQQSFDSSSPPTPQCHKRHRHCPVVVSEATIVGVRKTGQIWPNDGEGAFHGDADGSFGTPPGYGCAADRAEEQRRHQDGLPYIDDSPSSSPHLSSKGRGSRDALVSGALESTKASELDLEKGLEMRKWVLSGILASEETYLSHLEALLLPMKPLKAAATTSQPVLTSQQIETIFFKVPELYEIHKEFYDGLFPRVQQWSHQQRVGDLFQKLASQLGVYRAFVDNYGVAMEMAEKCCQANAQFAEISENLRARSNKDAKDPTTKNSLETLLYKPVDRVTRSTLVLHDLLKHTPASHPDHPLLQDALRISQNFLSSINEEITPRRQSMTVKKGEHRQLLKDSFMVELVEGARKLRHVFLFTDLLLCTKLKKQSGGKTQQYDCKWYIPLTDLSFQMVDELEAVPNIPLVPDEELDALKIKISQIKNDIQREKRANKGSKATERLKKKLSEQESLLLLMSPSMAFRVHSRNGKSYTFLISSDYERAEWRENIREQQKKCFRSFSLTSVELQMLTNSCVKLQTVHSIPLTINKEDDESPGLYGFLNVIVHSATGFKQSSNLYCTLEVDSFGYFVNKAKTRVYRDTAEPNWNEEFEIELEGSQTLRILCYEKCYNKTKIPKEDGESTDRLMGKGQVQLDPQALQDRDWQRTVIAMNGIEVKLSVKFNSREFSLKRMPSRKQTGVFGVKIAVVTKRERSKVPYIVRQCVEEIERRGMEEVGIYRVSGVATDIQALKAAFDVNNKDVSVMMSEMDVNAIAGTLKLYFRELPEPLFTDEFYPNFAEGIALSDPVAKESCMLNLLLSLPEANLLTFLFLLDHLKRVAEKEAVNKMSLHNLATVFGPTLLRPSEKESKLPANPSQPITMTDSWSLEVMSQVQVLLYFLQLEAIPAPDSKRQSILFSTEV
notes: also called normal Bcr protein; wild-type Bcr
Q: Does B1 bind?
A: binds
